Assay [1] has as its target WNV E ectodomain (residues 1-404) of the New York 1999 strain, expressed in E. coli and refolded (West Nile virus, New York 1999 strain) (UniProt Q9Q6P4). Kind of assay: SPR. (In general: Surface plasmon resonance follows binding to a sensor surface in real time, without labels.)
Assay [2] has as its target WNV DIII fragment (residues 296-404) of the New York 1999 strain, expressed in E. coli and refolded (West Nile virus, New York 1999 strain) (UniProt Q9Q6P4). Nature of the assay: SPR.

pKd: −log10 of the molar value.

Our source for the Kd values is patent publication US9499608.

For orientation: pKd means −log10 of the Kd, conventionally taken in molar units. Low readings indicate a large Kd, high ones a small Kd.

As to “pHu-E16 (plant-produced humanized E16 monoclonal antibody against West Nile virus)”, the figures for the pKd in assay [1] and in assay [2] were 7.34 and 7.39, respectively.
In the case of “mHu-E16 (mammalian CHO cell-produced humanized E16 monoclonal antibody)”, the pKd was 7.35 in assay [1] and 7.49 in assay [2].
